Results taken from article PMC11124806, “Optimization of Surface Functionalizations for Ring Resonator-Based Biosensors”.

T1: C-reactive protein (CRP) (UniProt P02741 19-224)
T1 sequence: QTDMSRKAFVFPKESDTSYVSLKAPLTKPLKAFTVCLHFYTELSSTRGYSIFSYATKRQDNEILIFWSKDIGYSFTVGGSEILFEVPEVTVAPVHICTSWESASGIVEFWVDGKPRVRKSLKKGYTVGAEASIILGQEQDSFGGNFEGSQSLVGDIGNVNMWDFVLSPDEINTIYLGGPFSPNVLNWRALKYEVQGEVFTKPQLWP


How the values were obtained:
thrombin (Thr) = thrombin (Thr) (UniProt P00734;P00734 328-363;364-622); assay: microring resonator (label-free photonic biosensor); 100 nM thrombin, 0.05% Tween 20, MCH-passivated chip; about 71% retained after buffer wash; CRP: 20 mM Hepes, 120 mM NaCl, 5 mM KCl, 1 mM CaCl2, 1 mM MgCl2, pH 7.3, room temperature, 30 min; thrombin: buffer with 0.05% Tween 20 (composition and tempera)
C-reactive protein (CRP) = molecular target: T1, C-reactive protein (CRP); assay: surface sandwich chemiluminescence (anti-CRP antibody-HRP); 100 nM CRP, 1 mM Ca2+, 1 mM Mg2+; still binds after two months storage at 4 C; CRP: 20 mM Hepes, 120 mM NaCl, 5 mM KCl, 1 mM CaCl2, 1 mM MgCl2, pH 7.3, room temperature, 30 min; thrombin: buffer with 0.05% Tween 20 (composition and temperature not in material); conditions: protein: commercial; chain copies: 5; label: 3' TAMRA on some amounts

| Binder | binding result (thrombin (Thr)) | binding result (C-reactive protein (CRP)) |
| --- | --- | --- |
| AGTCCGTGGTAGGGCAGGTTGGGGTGACT (structured_DNA, 5' thiol (5ThioMC6-D, reduced), immobilized on mercaptosilane) [a-Thr] | binds |  |
| CGAAGGGGATTCGAGGGGTGATTGCGTGCTCCATTTGGTG (ssDNA, 5' thiol (5ThioMC6-D, reduced), immobilized on mercaptosilane) [a-CRP] |  | binds |
